The RNAGym collection of RNA variant scans (doi:10.1073/pnas.2313332121)

B1: TPR t1 (parent)
chain: GACCAAUCUGCCCUCAGAGCUCGAGAACAUCUUCGGAUGCAGAGGAGGCAGGCUUCGGUGGCGCGAUAGCGCCAACGUCCUCAACCUCCAAUGCAUCCCACCACAUGAUGAUGCCUGAAGAGCCUUGGUUUUUUG

Variants of: B1
Assay: polymerase ribozyme fitness, log enrichment relative to wild type (log ratio); higher = more active; in vitro selection for triplet polymerase activity
How it was run: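 Each subunit of a heterodimeric triplet polymerase ribozyme was mutagenized into a library by PCR, transcribed, and subjected to one round of in vitro selection, run in triplicate. Libraries were annealed with a biotinylated primer, the partner subunit and triplets, incubated frozen at −7 °C, and extended constructs were gel-excised, captured on streptavidin beads and recovered by RT-PCR. Input and output libraries were sequenced on Illumina, keeping genotypes with ≥10 input reads and ≥1 read per output. Fitness is log base 2 of genotype enrichment divided by wild-type enrichment, from inverse-variance-weighted replicate averages.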

Row | Variant | polymerase ribozyme fitness (log ratio)
1 | C11G A37C A46U G120C G128C | -0.871
2 | C11A C64U | -1.04
3 | C11G C73A C82U | -0.161
4 | C11G C28U | -2.03
5 | C11G C20U G63A | -2.21
6 | C11G C56G U106G | -0.581
7 | C11A G36U G77C | -3.38
8 | C11U A50U C88U | -1.26
9 | G10U A27C U112C | -1.73
10 | C11G G42C A68U C72A A91U G113C | -8.47
11 | C11G U21G G93A | -2.28
12 | C11G G17U G61A A105G | -6.42
13 | G10U C20U U32A A84U C104A | -3.8
14 | G10U A46C | -0.286
15 | C11G C13G A50C G110C | -5.28
16 | G10U A24G G58C C79U | -2.27
17 | C11G G52A U54A C98A | -5.44
18 | G10U G113U | -2.76
19 | C11G C22U G44U | -4.93
20 | C11A G60U A74U C88A | -2.8
21 | C11G U33G A95G C101U G120C | -5.25
22 | G10C C13A C64U C82U A83C | -1.29
23 | C11G U55C C62G A83U A95U | -1.47
24 | G10U U87A U92C A121G U132C | 1.22

Row | Variant | polymerase ribozyme fitness (log ratio)
25 | G10C G36C G45C U59G C62U C80U | -3.25
26 | C11A C56A U81G A84U C101U C115A G120C U134G | 0.0951
27 | G10C C49G C64U A83G U125A | -3.57
28 | G10U C20A A84U U131C | -2.84
29 | C11A C53U C56A G63A C76G | -3.79
30 | C11G G47U C56U U112C G122A | -0.322
31 | G10U G57A G60A | -0.571
32 | C11A G45U A95C G113U | -7.14
33 | C11A C22G | -4.15
34 | G10U C15U A91C U125A | -3.89
35 | C11G G52A C99U U106G | -4.99
36 | C11G U129G | -1.77
37 | C11A G107A | -5.12
38 | C11G G77U C80U G113U | -3.12
39 | C11U A43U | -1.62
40 | G10C G61A G93C | -1.11
41 | C11G A24G C40U A90G U131A | -2.57
42 | C11G G44C A66G A83G C114A U133A | -5.39
43 | G10U G52A C79G A119U | -0.109
44 | G10C G42U | -2.19
45 | C11G A84U | -0.202
46 | G10U G71C | -1.29
47 | C11G G42C A95U | -1.3
48 | C11G C31A A41U C70G G113U | -5.92

Row | Variant | polymerase ribozyme fitness (log ratio)
49 | C11A C49G U129C | -2.01
50 | C11G G113A U133A | -1.34
51 | C11G C28U C56A G60A U78G | -4.9
52 | C11G A37U G71A C79A | -1.37
53 | C11G U38A G45U A50C | -2.51
54 | C11A C62U C94A | -2.43
55 | G10U U21A G60U G71A C89U C101U C124A | -6.77
56 | C11G G36A | 0.396
57 | G10U C22G A50C A118G | -5.56
58 | C11G A43G U59A | -1.75
59 | C11U A43U C56U C114G G128C | -5.28
60 | G10U A37C G113U U129A | -5.04
61 | C11G A50C | -0.589
62 | G10U C82G C85U G120C | 0.866
63 | C11G A68G U81A U106A G110A G113U A121G | -6.2
64 | C11U A37U G45A | -1.81
65 | C11U A24G G47U G77U U116C | -7.91
66 | G10U G17A C56A C89G G117A | -3.05
67 | C11G C56G C79U | -0.259
68 | C11U A18U G69U | -0.642
69 | G10C U112A | 0.23
70 | C11A U33G G69U U106A | -2.62
71 | C11G C20G C49A G117C | -5.23
72 | C11G C80U | -0.0495

Row | Variant | polymerase ribozyme fitness (log ratio)
73 | C11G C53G U96G A105C U112G | -5.28
74 | C11A U21A C40U G47A C49A G57A G58C G61U | -5.81
75 | C11A G77U U87G U106G G113C U125G | -4.71
76 | C11A G69U C79U C102U | -1.74
77 | G10U U78C | -0.395
78 | C11G G71A U106G | -2.48
79 | C11G C53U G61A G107A | -5.9
80 | G10C A103U C123U | -5.06
81 | C11U A18U C20U C56U C101A | -3.06
82 | G10C G39A C56G G113U A118U | -4.76
83 | C11A U14G G63A G71A A83G A91C C114U | -5.74
84 | C11G A37U G42U | -0.864
85 | C11U A26U C49G | -3.4
86 | C11A A105C | -3.07
87 | C11A C115G | -3.42
88 | G10U C73G | -0.976
89 | C11A G60C A95C | -1.9
90 | C11G G107C | -4.6
91 | G10U A83U | -0.308
92 | G10U A18U C70U | -4.05
93 | C11G A27U G47C A83U | -3.57
94 | G10U A50U | -1.65
95 | G10U U106A | 0.263
96 | C11U A26U G52C | -3.53

Row | Variant | polymerase ribozyme fitness (log ratio)
97 | G10U C82G G117C | -4.93
98 | C11G C53U C80U C88A U112C | 0.738
99 | G10C C13G G61A U106G A118U | -2.68
100 | G10U U78C C88G | -1.13
101 | G10U C11U | 0.0495
102 | G10C C15A | -2.21
103 | C11G G61C U78A U126A | -0.897
104 | G10U G48U G93A C123G | 0.384
105 | C11G C97A C102U | -4.77
106 | C11U A74C A111U | -3.83
107 | C11G A50U G93U G113U | -4.55
108 | C11G G110U U125A | -0.479
109 | C11A G52C U54C C94U G120C | 0.0193
110 | C11U A29U | -2.46
111 | C11U A29C | -3.12
112 | C11A C12A G71A C89G A90G C101U U133G | -4.22
113 | G10U C34G C102U | -6.42
114 | G10U G36A C64G A83G C94G G110U | -7.24
115 | C11A G44U C56U | -2.23
116 | C11G C40A | -1.54
117 | C11G G60A C70U | -0.917
118 | G10U C22U G47A G63C U96A C123A | -5.69
119 | C11A C12U G71U A84C | -1.73
120 | C11G C62U | -0.108

Row | Variant | polymerase ribozyme fitness (log ratio)
121 | C11G G61U C86A U106G C114U | -4.18
122 | G10U C53A G77C U78A G107C A121U | -4.29
123 | G10U A41U C72G C101U G110A | -4.92
124 | C11A A18U U21A C56U | -3.04
125 | G10U A16C C49U A118G C124A | -2.5
126 | G10C C12A G51A G127C | -4.99
127 | C11G C56U U87C | 0.175
128 | C11U A27U G71U C101G C104U A111C | -6.17
129 | C11G G47U G63A C79A | -3.91
130 | C11G G23U G39C G45C G47C C89U C99G C115U | -7.14
131 | G10U G17A | -3.07
132 | G10U C76A | -1.51
133 | C11G A27C G48A C94G | -4.21
134 | C11A A121U | 0.371
135 | C11G C64U | -0.506
136 | C11G G117A | -0.219
137 | G10U C56A | 0.154
138 | C11G C40U U87G C115U | -0.239
139 | G10C C15A G69U U112G | -1.87
140 | C11A G48U A66U C72A U96G U112C | -2.05
141 | C11A C73A U81C U125A | -3.38
142 | G10C C85U | -1.64
143 | G10C C34A | -3.12
144 | G10C C73A | -1.86

Row | Variant | polymerase ribozyme fitness (log ratio)
145 | G10U C11G A29C C53A A74U | -3.94
146 | C11G G19A G47C G48A | -3.86
147 | C11G U134A | 0.54
148 | C11A G52A A68G C101U G117C | -7.38
149 | G10C C11G A103U | -3.76
150 | C11A G45A G61A | -1.68
151 | C11U A50U C70U G113A | -2.63
152 | C11G C70G C123U | -0.504
153 | C11G C22U C34A A37U C88A U96G C115U | -7.3
154 | C11A C20U C34A C53A C94G A121U | -3.61
155 | G10U A18U C40A C56G | -4.94
156 | C11G A16U G93U A100C C123U | -3.13
157 | G10C C12U U14A G71U G107U | -5.41
158 | C11G C70U | 0.101
159 | C11A A41C G58A U96A | -3.23
160 | C11A A18U G127A | -4.94
161 | G10U C40U A41G A46C C64U | -5.98
162 | C11G G63A A111G | -0.361
163 | C11G G17U A50U G71U C85A U87C | -5.37
164 | C11G G52A C56A | -0.203
165 | C11A C72G | -1.14
166 | C11G C34U C86G A119U | -5.27
167 | C11G C88G G93C | -3.14
